Literature values in paper PMC4010523.
pKd: −log10 of the molar value.

Biological target: complement C5 (Homo sapiens) (UniProt P01031)

In the case of Eculizumab, the pKd is listed as 9.92.
